Results taken from US20200325232A1 (INNATE PHARMA, published 2020).

B1: NKp46-3 (antibody, V domains shown)
VH: EVQLQQSGPELVKPGASVKISCKTSGYTFTEYTMHWVKQSHGKSLEWIGGISPNIGGTSYNQKFKGKATLTVDKSSSTAYMELRSLTSEDSAVYYCARRGGSFDYWGQGTTLTVSS
VL: DIVMTQSPATLSVTPGDRVSLSCRASQSISDYLHWYQQKSHESPRLLIKYASQSISGIPSRFSGSGSGSDFTLSINSVEPEDVGVYYCQNGHSFPLTFGAGTKLELK
notes: Mouse hybridoma antibody (Balb/c immunisation); also called anti-NKp46 (NKp46-3)
B2: CD19-F18-NKp46-1 (bispecific antibody)
chain 1: not shown
chain 2: not shown
chain 3: DIQMTQTTSSLSASLGDRVTISCRASQDISNYLNWYQQKPDGTVKLLIYYTSRLHSGVPSRFSGSGSGTDYSLTINNLEQEDIATYFCQQGNTRPWTFGGGTKLEIKASTKGPSVFPLAPSSKSTSGGTAALGCLVKDYFPEPVTVSWNSGALTSGVHTFPAVLQSSGLYSLSSVVTVPSSSLGTQTYICNVNHKPSNTKVDKRVEPKSCDKTH
B3: CD19-F19-NKp46-1 (bispecific antibody, human IgG1, kappa)
chain 1: not shown
chain 2: not shown
chain 3: B2 chain 3
B4: CD19-F20-NKp46-1 (bispecific antibody, human IgG1, kappa)
chain 1: not shown
chain 2: not shown
chain 3: B2 chain 3

Assays:
human NKp46 = molecular target: T1, human NKp46 (human, UniProt O76036 22-304); assay: flow cytometry screen of Example 1 on a cell line expressing human NKp46
T1 construct: The screen used a cell line expressing 'the human NKp46 construct' at the cell surface; In the lysis assays NKp46 is on fresh human NK cells; also called huNKp46; NKp46 receptor
Procedure: Primary screen: Supematant (SN) of growing clones were tested in a primary screen by flow cytometry using a cell line expressing the human NKp46 construct at the cell surface.

CD19 = molecular target: T2, CD19 (UniProt P15391 20-556, limits assumed); assay: cell-based or functional assay
T2 sequence (looked up): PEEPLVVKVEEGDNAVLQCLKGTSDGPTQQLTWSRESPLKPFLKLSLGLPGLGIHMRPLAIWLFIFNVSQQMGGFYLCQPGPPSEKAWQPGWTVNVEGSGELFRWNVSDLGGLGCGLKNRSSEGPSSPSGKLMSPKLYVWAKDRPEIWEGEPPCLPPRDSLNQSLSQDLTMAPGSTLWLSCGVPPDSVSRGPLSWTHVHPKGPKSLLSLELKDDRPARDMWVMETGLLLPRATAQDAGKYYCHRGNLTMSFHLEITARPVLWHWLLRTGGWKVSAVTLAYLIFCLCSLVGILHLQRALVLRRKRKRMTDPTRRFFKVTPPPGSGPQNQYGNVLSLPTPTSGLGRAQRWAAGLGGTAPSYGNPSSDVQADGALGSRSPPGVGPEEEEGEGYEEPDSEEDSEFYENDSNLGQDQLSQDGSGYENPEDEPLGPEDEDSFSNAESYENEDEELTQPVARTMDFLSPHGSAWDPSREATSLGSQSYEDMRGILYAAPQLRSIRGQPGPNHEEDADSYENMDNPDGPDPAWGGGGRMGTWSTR

T1 sequence (O76036 22-304 Q82K limits assumed): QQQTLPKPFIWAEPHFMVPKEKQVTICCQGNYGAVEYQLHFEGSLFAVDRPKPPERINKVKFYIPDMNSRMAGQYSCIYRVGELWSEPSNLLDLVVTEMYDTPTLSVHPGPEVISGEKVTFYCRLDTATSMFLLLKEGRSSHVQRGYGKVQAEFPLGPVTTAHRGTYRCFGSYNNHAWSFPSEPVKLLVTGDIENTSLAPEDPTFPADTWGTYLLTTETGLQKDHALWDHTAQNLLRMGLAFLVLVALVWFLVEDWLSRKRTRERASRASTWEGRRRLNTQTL

Row | Binder | binding result (human NKp46) | EC50 of Daudi target cell lysis by NK cells (4-h 51Cr-release assay) (CD19) [picomolar]
1 | B1 | binds | –
2 | B2 | – | ~1
3 | B3 | – | ~1
4 | B4 | – | ~1
